The results in this text go back to publication PMC4742702 (mBio, 2016).

In test [1] the target is BppUct (C-terminal portion of Tuc2009 BppU, residues 194 to 322) (Lactococcus phage Tuc2009). Description: crystal structure.
The target in test [2] is Tuc2009 BppL (RBP) as in the tripod (Lactococcus phage Tuc2009). Description: crystal structure.
Test [3] has as its target serendipitously cleaved BppL head domain (residues 52 to 173) in the tripod crystal (Lactococcus phage Tuc2009). Description: crystal structure.
In test [4] the target is trypsin-cleaved Tuc2009 RBP head domain (in the nano-L06 complex) (Lactococcus phage Tuc2009). Description: crystal structure.
Test [5] deals with T1, phage Tuc2009 receptor binding protein (RBP, BppL, ORF53) (Lactococcus phage Tuc2009).
T1 chain: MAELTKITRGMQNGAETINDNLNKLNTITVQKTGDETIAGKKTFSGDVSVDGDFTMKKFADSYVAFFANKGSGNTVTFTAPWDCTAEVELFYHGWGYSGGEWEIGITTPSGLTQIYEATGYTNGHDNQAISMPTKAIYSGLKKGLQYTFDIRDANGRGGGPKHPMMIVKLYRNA
Put plainly: BLI. For orientation: Biolayer interferometry detects binding as a change in optical thickness at a sensor tip.

Test [6] addresses T2, Tuc2009 tripod BppUctAL complex (BppUct/BppA/BppL) (Lactococcus phage Tuc2009).
T2 chain 1: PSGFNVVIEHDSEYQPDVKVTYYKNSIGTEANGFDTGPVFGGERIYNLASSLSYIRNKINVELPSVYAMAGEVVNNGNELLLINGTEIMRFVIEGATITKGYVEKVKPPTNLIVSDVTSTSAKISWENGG
T2 chain 2: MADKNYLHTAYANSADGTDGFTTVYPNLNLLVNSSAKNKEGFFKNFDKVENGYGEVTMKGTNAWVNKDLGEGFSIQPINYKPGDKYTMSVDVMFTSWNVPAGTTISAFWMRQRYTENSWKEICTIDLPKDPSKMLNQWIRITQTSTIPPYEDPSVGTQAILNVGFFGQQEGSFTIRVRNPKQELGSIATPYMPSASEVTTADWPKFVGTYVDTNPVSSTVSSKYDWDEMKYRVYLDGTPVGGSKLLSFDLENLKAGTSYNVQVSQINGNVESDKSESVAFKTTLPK
T2 chain 3: T1 chain
Description: BLI.

As usually defined, the stoichiometry N is a count of units in the complex or per binding partner. The molecule “BppUct (C-terminal portion of Tuc2009 BppU, residues 194 to 322) (domain or fragment)” yielded a stoichiometry N in test [1] of 3.
“Tuc2009 BppL (RBP) as in the tripod (natural protein)” displayed a stoichiometry N in test [2] of 3.
As to “serendipitously cleaved BppL head domain (residues 52 to 173) in the tripod crystal (domain or fragment)”, the stoichiometry N in test [3] was 3.
In test [4], “trypsin-cleaved Tuc2009 RBP head domain (in the nano-L06 complex) (domain or fragment)” gave a stoichiometry N of 3.

B1: nanobody nano-L06 (VHH)
VHH: QVQLVESGGGSVQAGGSLRLSCTASGFTFDDSDMGWYHQAPGNECELVSAIFSDGSTYYADSVKGRFTISRDNAKNTVYLQMNSLKPEDTAMYYCAAATTTVASPPVRHVCNGYWGQGTQVTVSS
A word on the Kd: it is a measure of binding affinity in units of concentration. B1: the Kd in test [5] was found to be 9.1 ± 0.7 nM; in test [6], 9.1 ± 0.6 nM.
